# Test results: patent US20140341881A1 (DERMADIS, published 2014)
# Substitutions are numbered along the chain they refer to.
# B1: AATC11 (other, human)
# chain: HHHHHHEDPQGDAAQKTDTSHHDQDHPTFNKITPNLAEFAFSLYRQLAHQSNSTNIFFSPVSIATAFAMLSLGTKADTHDEILEGLNFNLTEIPEAQIHEGFQELLRTLNQPDSQLQLTTGNGLFLSEGLKLVDKFLEDVKKLYHSEAFTVNFGDTEEAKKQINDYVEKGTQGKIVDLVKELDRDTVFALVNYIFFKGKWERPFEVKDTEEEDFHVDQVTTVKVPMMKRLGMFNIQHCKKLSSWVLLMKYLGNATAIFFLPDEGKLQHLENELTHDIITKFLENEDRRSASLHLPKLSITGTYDLKSVLGQLGITKVFSNGADLSGVTEEAPLKLSKAVHKAVLTIDEKGTEAAGAMFLEAIPRQTNPEVKFNKPFVFLMIEQNTKSPLFMGKVVNPTQK
# notes: mature
# B2: AATG1g (other, human)
# chain: B1 chain with A361G, I362S, P363L, Q365G, T366I, N367P
# notes: mature
# B3: AATG1 (other, human)
# chain: B1 chain with A361G, I362S, P363L, Q365S, T366I, N367P
# notes: mature
# B4: ACTC11 (other)
# chain: MRGSHHHHHHSRHPNSPLDEENLTQENQDRGTHVDLGLASANVDFAFSLYKQLVLKAPDKNVIFSPLSISTALAFLSLGAHNTTLTEILKGLKFNLTETSEAEIHQSFQHLLRTLNQSSDELQLSMGNAMFVKEQLSLLDRFTEDAKRLYGSEAFATDFQDSAAAKKLINDYVKNGTRGKITDLIKDLDSQTMMVLVNYIFFKAKWEMPFDPQDTHQSRFYLSKKKWVMVPMMSLHHLTIPYFRDEELSCTVVELKYTGNASALFILPDQDKMEEVEAMLLPETLKRWRDSLEFREIGELYLPKFSISRDYNLNDILLQLGIEEAFTSKADLSGITGARNLAVSQVVHKAVLDVFEEGTEASAATAVKITLRQTNVETRTIVRFNRPFLMIIVPTDTQNIFFMSKVTNPKQA
# notes: also called rACTC11
# B5: ACTC11D (other)
# chain: B4 chain with V376D
# notes: also called rACTC11D
# B6: ACTF11 (other)
# chain: B4 chain with I369Q, T370R, Q373D, T374A, N375L
# B7: ACTE5 (other)
# chain: B4 chain with T370N, L371Q, Q373S, T374S, N375L
# B8: ACTG1g (other)
# chain: B4 chain with I369G, T370S, Q373G, T374A, N375L
# B9: ACTC11g (other)
# chain: B4 chain with L371G
# B10: ACTG1 (other)
# chain: B4 chain with I369G, T370S, Q373S, T374A, N375L
# B11: ACTG1v (other)
# chain: B4 chain with K368V, I369G, T370S, Q373S, T374A, N375L
# B12: AATC11g (other)
# chain: MRGSHHHHHHGSDDPQGDAAQKTDTSHHDQDHPTFNKITPNLAEFAFSLYRQLAHQSNSTNIFFSPVSIATAFAMLSLGTKADTHDEILEGLNFNLTEIPEAQIHEGFQELLRTLNQPDSQLQLTTGNGLFLSEGLKLVDKFLEDVKKLYHSEAFTVNFGDTEEAKKQINDYVEKGTQGKIVDLVKELDRDTVFALVNYIFFKGKWERPFEVKDTEEEDFHVDQATTVKVPMMKRLGMFNIQHCKKLSSWVLLMKYLGNATAIFFLPDEGKLQHLENELTHDIITKFLENEDRRSASLHLPKLSITGTYDLKSVLGQLGITKVFSNGADLSGVTEEAPLKLSKAVHKAVLTIDEKGTEAAGAMFLEAIGRQTNPEVKFNKPFVFLMIEQNTKSPLFMGKVVNPTQK
# B13: AATE5 (other, human)
# chain: B1 chain with I362N, P363Q, Q365S, T366S, N367P
# notes: mature
# B14: AATF3 (other, human)
# chain: B1 chain with I362P, P363D, Q365H, T366M, N367P
# notes: mature
# Target: human chymotrypsin (Chtr) (human, UniProt P17538 19-263)
# Sequence (P17538 19-263): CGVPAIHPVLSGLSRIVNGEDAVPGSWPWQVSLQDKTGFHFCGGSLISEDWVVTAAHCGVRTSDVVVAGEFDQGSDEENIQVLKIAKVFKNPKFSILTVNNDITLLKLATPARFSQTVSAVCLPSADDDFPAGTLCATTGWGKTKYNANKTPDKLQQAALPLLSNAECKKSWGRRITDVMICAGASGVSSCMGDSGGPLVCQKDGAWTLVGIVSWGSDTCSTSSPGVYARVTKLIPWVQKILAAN
# Test: cell-based or functional assay
row,Binder,% Inhibition [%]
1,B1,18
2,B2,17
3,B3,27
4,B4,84
5,B5,83

# Target: human plasma kallikrein (PK) (human, UniProt P03952 20-638)
# Sequence (P03952 20-638 limits assumed): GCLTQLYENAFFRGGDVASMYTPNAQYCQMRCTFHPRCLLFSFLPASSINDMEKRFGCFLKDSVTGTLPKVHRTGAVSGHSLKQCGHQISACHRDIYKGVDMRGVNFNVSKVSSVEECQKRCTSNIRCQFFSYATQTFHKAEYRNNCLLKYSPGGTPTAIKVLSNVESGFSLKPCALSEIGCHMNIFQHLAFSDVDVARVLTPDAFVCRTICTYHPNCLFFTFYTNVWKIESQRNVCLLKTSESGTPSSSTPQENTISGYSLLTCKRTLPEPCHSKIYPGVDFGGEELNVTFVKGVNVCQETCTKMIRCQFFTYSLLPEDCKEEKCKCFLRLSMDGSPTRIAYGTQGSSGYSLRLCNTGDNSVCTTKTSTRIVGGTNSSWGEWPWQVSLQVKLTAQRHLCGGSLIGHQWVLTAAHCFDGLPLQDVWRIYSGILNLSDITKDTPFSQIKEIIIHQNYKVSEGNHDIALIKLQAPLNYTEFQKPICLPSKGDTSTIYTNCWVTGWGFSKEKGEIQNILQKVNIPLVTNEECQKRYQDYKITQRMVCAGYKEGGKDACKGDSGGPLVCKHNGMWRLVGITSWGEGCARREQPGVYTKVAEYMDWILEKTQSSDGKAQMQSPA
# Test: cell-based or functional assay
row,Binder,% Inhibition [%]
1,B1,8
2,B2,100
3,B3,100
4,B4,0
5,B5,0

# Target: urokinase plasminogen activator (uPA) (UniProt P00749 21-431, limits assumed)
# Test: cell-based or functional assay
row,Binder,% Inhibition [%]
1,B1,0
2,B2,0
3,B3,17
4,B4,0
5,B5,0

# Target: T1, human neutrophil elastase (HNE) (human, UniProt P08246 30-247, limits assumed)
# T1 sequence (looked up): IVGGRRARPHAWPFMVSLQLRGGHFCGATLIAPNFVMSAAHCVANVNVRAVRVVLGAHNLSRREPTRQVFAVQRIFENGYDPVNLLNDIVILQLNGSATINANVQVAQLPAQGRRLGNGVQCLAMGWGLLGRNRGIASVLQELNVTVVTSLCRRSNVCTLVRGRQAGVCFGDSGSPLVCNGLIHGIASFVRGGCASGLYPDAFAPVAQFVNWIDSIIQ
# Test: cell-based or functional assay
row,Binder,% Inhibition [%]
1,B1,0
2,B2,0
3,B3,0
4,B4,0
5,B5,0

# Target: thrombin
# Test: cell-based or functional assay
row,Binder,% Inhibition [%]
1,B1,100
2,B2,0
3,B3,51
4,B4,0
5,B5,0

# Target: T2, human kallikrein 14 (hK14) (human, UniProt Q9P0G3 25-251, limits assumed)
# T2 sequence (looked up): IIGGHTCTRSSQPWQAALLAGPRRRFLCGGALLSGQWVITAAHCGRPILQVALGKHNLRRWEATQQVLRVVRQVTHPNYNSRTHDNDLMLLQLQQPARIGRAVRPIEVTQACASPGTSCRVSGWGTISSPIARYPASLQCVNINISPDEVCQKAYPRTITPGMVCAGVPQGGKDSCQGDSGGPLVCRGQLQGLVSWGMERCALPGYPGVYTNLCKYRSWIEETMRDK
# Test: cell-based or functional assay
row,Binder,% Inhibition [%]
1,B1,100
2,B2,100
3,B3,100
4,B4,100
5,B5,100

# Target: human kallikrein 2 (hK2) (human, UniProt P20151 25-261)
# Test: cell-based or functional assay
row,Binder,% Inhibition [%]
1,B6,25
2,B7,0
3,B8,0
4,B9,25
5,B10,15

# Target: human kallikrein 4 (hK4) (human, UniProt Q9Y5K2 31-254, limits assumed)
# Sequence (Q9Y5K2 31-254 limits assumed): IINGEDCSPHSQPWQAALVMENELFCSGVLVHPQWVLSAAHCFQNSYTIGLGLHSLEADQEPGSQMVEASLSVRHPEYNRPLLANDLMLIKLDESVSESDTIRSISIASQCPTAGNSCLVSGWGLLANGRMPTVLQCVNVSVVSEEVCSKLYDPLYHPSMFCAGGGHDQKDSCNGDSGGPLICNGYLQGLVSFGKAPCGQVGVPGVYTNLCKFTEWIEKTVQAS
# Test: cell-based or functional assay
row,Binder,% Inhibition [%]
1,B6,45
2,B7,75
3,B8,0
4,B9,0
5,B10,0

# Target: T3, human kallikrein 5 (hK5) (human, UniProt Q9Y337 67-293, limits assumed)
# T3 sequence (looked up): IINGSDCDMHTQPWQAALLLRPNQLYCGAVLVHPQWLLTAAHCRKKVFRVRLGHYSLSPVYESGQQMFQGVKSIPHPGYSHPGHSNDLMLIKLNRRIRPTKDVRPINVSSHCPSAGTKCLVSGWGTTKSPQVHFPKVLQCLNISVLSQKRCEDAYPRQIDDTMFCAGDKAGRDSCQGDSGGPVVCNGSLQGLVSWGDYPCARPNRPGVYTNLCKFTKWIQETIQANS
# Test: cell-based or functional assay
row,Binder,% Inhibition [%]
1,B6,15
2,B7,10
3,B8,10
4,B9,5
5,B10,50

# Target: human kallikrein 6 (hK6) (human, UniProt Q92876 22-244)
# Test: cell-based or functional assay
row,Binder,% Inhibition [%]
1,B6,0
2,B7,0
3,B8,0
4,B9,0
5,B10,20

# Target: T4, human kallikrein 8 (hK8) (human, UniProt O60259 33-260)
# T4 sequence (looked up): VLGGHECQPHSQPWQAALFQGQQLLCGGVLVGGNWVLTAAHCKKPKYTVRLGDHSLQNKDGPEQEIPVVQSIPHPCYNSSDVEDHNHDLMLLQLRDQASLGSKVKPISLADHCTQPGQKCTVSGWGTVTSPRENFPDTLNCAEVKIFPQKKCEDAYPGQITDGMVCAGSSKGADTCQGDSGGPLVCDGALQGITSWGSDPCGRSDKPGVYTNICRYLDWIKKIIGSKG
# Test: cell-based or functional assay
row,Binder,% Inhibition [%]
1,B6,0
2,B7,10
3,B8,0
4,B9,0
5,B10,0

# Target: T2, human kallikrein 14 (hK14)
# Test: progress curve; * [I0]/[E0] < 5 * SI
# Protocol: The association rate constants for interactions of hK14, with different inhibitors were determined under pseudo-first order conditions using the progress curve method (Morrison and Walsh, 1988). Under these conditions, a fixed amount of enzyme (2 nM) was mixed with different concentrations of inhibitor (0-80 nM) and an excess of substrate (20 μM). Reactions were performed in reaction buffer (50 mM Tris pH 7.5, 150 mM NaCl, 0.05% Triton X-100, 0.01% BSA) at 37° C. for 45 min and the rate of product formation was measured using a FLₓ800 fluorescence 96-well microplate reader (Biotek, USA) Inhibition is considered to be irreversible over the course of reaction and the progression of enzyme activity is expressed as product formation (P), beginning at a rate (vz) and is inhibited over time (t) at a first-order rate (kobs), where the rate constant is only dependent on the inhibitor concentration.
row,Binder,kon [M⁻¹ s⁻¹]
1,B4,65000
2,B5,74000
3,B9,7600
4,B10,3200
5,B11,22000
6,B12,42000

# Target: T2, human kallikrein 14 (hK14)
# Test: residual hK14 activity against [I0]/[E0]
# Protocol: SI values of rAAT, rACT, and their variants were determined with hK14 incubating the protease with varying concentrations of inhibitor. After an incubation of 4 hours at 37° C. in reaction buffer (50 mM Tris, pH 7.5, 150 mM NaCl, 0.05% Triton X-100, 0.01% BSA), the residual activity was detected by the addition of fluorescent substrate (Boc-Val-Pro-Arg-AMC). Fluorescence was measured with excitation at 340 nm (±15) and emission at 485 nm (±10) in black 96 well plates using a microplate fluorescence reader FLₓ800 (Bio-Tek Instruments, Inc.). The SI value corresponds to the abscissa intercept of the linear regression analysis of fractional velocity (velocity of inhibited enzyme reaction (vi)/velocity of uninhibited enzyme reaction (v₀)) vs. the molar ratio of the inhibitor to enzyme ([I₀]/[E₀]).
row,Binder,SI (stoichiometry of inhibition)
1,B1,2.8
2,B2,2.3
3,B3,3.6
4,B13,10
5,B14,11.7
6,B4,4.8
7,B5,2.8
8,B9,13.8
9,B10,13.3
10,B11,11.7
11,B12,9
